T1: Heat shock transcription factor 1 (Hsf1), wildtype (human), Q00613
T1 chain: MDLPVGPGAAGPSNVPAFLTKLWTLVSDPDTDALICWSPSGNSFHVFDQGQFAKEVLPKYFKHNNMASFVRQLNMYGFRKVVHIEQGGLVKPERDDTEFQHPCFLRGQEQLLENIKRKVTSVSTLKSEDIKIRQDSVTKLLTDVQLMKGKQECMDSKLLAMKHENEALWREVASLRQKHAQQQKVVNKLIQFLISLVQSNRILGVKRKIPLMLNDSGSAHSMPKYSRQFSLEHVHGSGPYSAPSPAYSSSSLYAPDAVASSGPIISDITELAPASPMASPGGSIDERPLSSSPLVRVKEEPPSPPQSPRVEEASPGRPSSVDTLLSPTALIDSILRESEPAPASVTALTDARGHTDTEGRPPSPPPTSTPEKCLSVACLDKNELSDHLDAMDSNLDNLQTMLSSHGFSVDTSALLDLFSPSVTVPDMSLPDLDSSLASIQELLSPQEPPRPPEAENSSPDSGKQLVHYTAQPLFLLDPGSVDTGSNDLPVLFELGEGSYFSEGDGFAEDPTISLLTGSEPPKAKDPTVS


Legend:
[1] = target: T1, Heat shock transcription factor 1 …; experiment: native gel or EMSA; Blue native PAGE (8% gel, on ice) of monomeric Hsf1 and of Hsf1 monomers heat shocked at 42 °C for 10 min; samples taken at 0 and 3 h of incubation at 25 °C (Figure S1); conditions: remark: other sources report otherwise
[2] = target: the molecule itself; experiment: as above

Binder	stoichiometry N [1]	stoichiometry N [2]
Heat shock transcription factor 1 (Hsf1), wildtype, Q00613 1-529 (natural protein) MDLPVGPGAAGPSNVPAFLTKLWTLVSDPDTDALICWSPSGNSFHVFDQGQFAKEVLPKYFKHNNMASFVRQLNMYGFRKVVHIEQGGLVKPERDDTEFQHPCFLRGQEQLLENIKRKVTSVSTLKSEDIKIRQDSVTKLLTDVQLMKGKQECMDSKLLAMKHENEALWREVASLRQKHAQQQKVVNKLIQFLISLVQSNRILGVKRKIPLMLNDSGSAHSMPKYSRQFSLEHVHGSGPYSAPSPAYSSSSLYAPDAVASSGPIISDITELAPASPMASPGGSIDERPLSSSPLVRVKEEPPSPPQSPRVEEASPGRPSSVDTLLSPTALIDSILRESEPAPASVTALTDARGHTDTEGRPPSPPPTSTPEKCLSVACLDKNELSDHLDAMDSNLDNLQTMLSSHGFSVDTSALLDLFSPSVTVPDMSLPDLDSSLASIQELLSPQEPPRPPEAENSSPDSGKQLVHYTAQPLFLLDPGSVDTGSNDLPVLFELGEGSYFSEGDGFAEDPTISLLTGSEPPKAKDPTVS	3	–
Hsf1–S303E,S307E (double phosphomimetic variant) (natural protein, human, UniProt Q00613 1-529, looked up, Heat shock transcription factor 1 (Hsf1), human, full length, phosphomimetic S303E,S307E; theoretical mass 57,270.43 Da; also called EE; source: E. coli BL21(DE3) Rosetta, purified (Ni-IDA, tag cleaved with tobacco etch virus protease, SEC; monomeric and trimeric fractions)) MDLPVGPGAAGPSNVPAFLTKLWTLVSDPDTDALICWSPSGNSFHVFDQGQFAKEVLPKYFKHNNMASFVRQLNMYGFRKVVHIEQGGLVKPERDDTEFQHPCFLRGQEQLLENIKRKVTSVSTLKSEDIKIRQDSVTKLLTDVQLMKGKQECMDSKLLAMKHENEALWREVASLRQKHAQQQKVVNKLIQFLISLVQSNRILGVKRKIPLMLNDSGSAHSMPKYSRQFSLEHVHGSGPYSAPSPAYSSSSLYAPDAVASSGPIISDITELAPASPMASPGGSIDERPLSSSPLVRVKEEPPEPPQEPRVEEASPGRPSSVDTLLSPTALIDSILRESEPAPASVTALTDARGHTDTEGRPPSPPPTSTPEKCLSVACLDKNELSDHLDAMDSNLDNLQTMLSSHGFSVDTSALLDLFSPSVTVPDMSLPDLDSSLASIQELLSPQEPPRPPEAENSSPDSGKQLVHYTAQPLFLLDPGSVDTGSNDLPVLFELGEGSYFSEGDGFAEDPTISLLTGSEPPKAKDPTVS	–	3
Hsf1–K298R,S303E,S307E (natural protein, human, UniProt Q00613 1-529, looked up, Heat shock transcription factor 1 (Hsf1), human, full length, K298R in the S303E,S307E variant; also called REE; EE,K298R; source: E. coli BL21(DE3) Rosetta, purified (Ni-IDA, tag cleaved with tobacco etch virus protease, SEC)) MDLPVGPGAAGPSNVPAFLTKLWTLVSDPDTDALICWSPSGNSFHVFDQGQFAKEVLPKYFKHNNMASFVRQLNMYGFRKVVHIEQGGLVKPERDDTEFQHPCFLRGQEQLLENIKRKVTSVSTLKSEDIKIRQDSVTKLLTDVQLMKGKQECMDSKLLAMKHENEALWREVASLRQKHAQQQKVVNKLIQFLISLVQSNRILGVKRKIPLMLNDSGSAHSMPKYSRQFSLEHVHGSGPYSAPSPAYSSSSLYAPDAVASSGPIISDITELAPASPMASPGGSIDERPLSSSPLVRVREEPPEPPQEPRVEEASPGRPSSVDTLLSPTALIDSILRESEPAPASVTALTDARGHTDTEGRPPSPPPTSTPEKCLSVACLDKNELSDHLDAMDSNLDNLQTMLSSHGFSVDTSALLDLFSPSVTVPDMSLPDLDSSLASIQELLSPQEPPRPPEAENSSPDSGKQLVHYTAQPLFLLDPGSVDTGSNDLPVLFELGEGSYFSEGDGFAEDPTISLLTGSEPPKAKDPTVS	–	3

Source: article PMC7949154, “Heat shock transcription factor 1 is SUMOylated in the activated trimeric state” (The Journal of Biological Chemistry, 2020)
